First the molecules themselves.
B1: Ankyrin-2, residues 3571 to 3650; numbered along this chain, Q01484 (parent)
chain: ERLAYIADHLGFSWTELARELDFTEEQIHQIRIENPNSLQDQSHALLKYWLERDGKHATDTNLVECLTKINRMDIVHLME

± gives the uncertainty stated by the source.

Variants of B1 are the subject of the data set. As to the kind of experiment: abundance fitness (aPCA) (normalised: wild type 0, dead -1); higher = more abundant; growth selection in yeast, the domain comes from the species named. The conditions noted are these: Homo sapiens.
Consider ERLAYIADHLGFSWTELARELDFTEEQIHQIRIENRNSLQDQSHALLKYWLERDGKHATDTNLVECLTKINRMDIVHLME [P36R], for which the abundance fitness was -0.076 ± 0.047.

Regarding ERLAYIADHLGFSWTELARELDFTEEQIHQIRIENENSLQDQSHALLKYWLERDGKHATDTNLVECLTKINRMDIVHLME [P36E], the abundance fitness was -0.044 ± 0.23.

Regarding ERLAYIADHLGFSWTELARELDFTEEQIHQIRIENPASLQDQSHALLKYWLERDGKHATDTNLVECLTKINRMDIVHLME [N37A], the abundance fitness turned out to be 0.043 ± 0.074.

Turning to ERLAYIADHLGFSWTELARELDFTEEQIHQIRIENPCSLQDQSHALLKYWLERDGKHATDTNLVECLTKINRMDIVHLME [N37C], the abundance fitness is -0.064 ± 0.1.

With ERLAYIADHLGFSWTELARELDFTEEQIHQIRIEMPNSLQDQSHALLKYWLERDGKHATDTNLVECLTKINRMDIVHLME [N35M], the abundance fitness is -0.03 ± 0.086.

As for ERLAYIADHLGFSWTELARELDFTEEQIHQIRIEEPNSLQDQSHALLKYWLERDGKHATDTNLVECLTKINRMDIVHLME [N35E], the abundance fitness was -0.043 ± 0.088.

With ERLAYIADHLGFSWTELARELDFTEEQIHQIRIEKPNSLQDQSHALLKYWLERDGKHATDTNLVECLTKINRMDIVHLME [N35K], the abundance fitness was -0.042 ± 0.12.

Regarding ERLAYIADHLGFSWTELARELDFTEEQIHQIRIEHPNSLQDQSHALLKYWLERDGKHATDTNLVECLTKINRMDIVHLME [N35H], the abundance fitness is -0.118 ± 0.21.

Take ERLAYIADHLGFSWTELARELDFTEEQIHQIRIEIPNSLQDQSHALLKYWLERDGKHATDTNLVECLTKINRMDIVHLME [N35I]: the abundance fitness was -0.087 ± 0.11.

As to ERLAYIADHLGFSWTELARELDFTEEQIHQIRIEYPNSLQDQSHALLKYWLERDGKHATDTNLVECLTKINRMDIVHLME [N35Y], the abundance fitness was -0.07 ± 0.17.

ERLAYIADHLGFSWTELARELDFTEEQIHQIRIEAPNSLQDQSHALLKYWLERDGKHATDTNLVECLTKINRMDIVHLME [N35A]: the abundance fitness was -0.066 ± 0.066.

Take ERLAYIADHLGFSWTELARELDFTEEQIHQIRIECPNSLQDQSHALLKYWLERDGKHATDTNLVECLTKINRMDIVHLME [N35C]: the abundance fitness is -0.053 ± 0.084.

For the variant ERLAYIADHLGFSWTELARELDFTEEQIHQIRIELPNSLQDQSHALLKYWLERDGKHATDTNLVECLTKINRMDIVHLME [N35L], the abundance fitness was -0.128 ± 0.067.

On to ERLAYIADHLGFSWTELARELDFTEEQIHQIRIEWPNSLQDQSHALLKYWLERDGKHATDTNLVECLTKINRMDIVHLME [N35W], for which the abundance fitness was -0.049 ± 0.065.

With ERLAYIADHLGFSWTELARELDFTEEQIHQIRIEQPNSLQDQSHALLKYWLERDGKHATDTNLVECLTKINRMDIVHLME [N35Q], the abundance fitness stood at 0.066 ± 0.08.

Consider ERLAYIADHLGFSWTELARELDFTEEQIHQIRIESPNSLQDQSHALLKYWLERDGKHATDTNLVECLTKINRMDIVHLME [N35S], for which the abundance fitness was -0.093 ± 0.051.

For ERLAYIADHLGFSWTELARELDFTEEQIHQIRIEVPNSLQDQSHALLKYWLERDGKHATDTNLVECLTKINRMDIVHLME [N35V], the abundance fitness was -0.084 ± 0.059.

ERLAYIADHLGFSWTELARELDFTEEQIHQIRIETPNSLQDQSHALLKYWLERDGKHATDTNLVECLTKINRMDIVHLME [N35T]: the abundance fitness is -0.071 ± 0.08.

ERLAYIADHLGFSWTELARELDFTEEQIHQIRIEFPNSLQDQSHALLKYWLERDGKHATDTNLVECLTKINRMDIVHLME [N35F]: the abundance fitness was -0.091 ± 0.14.

For ERLAYIADHLGFSWTELARELDFTEEQIHQIRIERPNSLQDQSHALLKYWLERDGKHATDTNLVECLTKINRMDIVHLME [N35R], the abundance fitness was -0.033 ± 0.048.

With ERLAYIADHLGFSWTELARELDFTEEQIHQIRIEDPNSLQDQSHALLKYWLERDGKHATDTNLVECLTKINRMDIVHLME [N35D], the abundance fitness was -0.296 ± 0.17.

Consider ERLAYIADHLGFSWTELARELDFTEEQIHQIRWENPNSLQDQSHALLKYWLERDGKHATDTNLVECLTKINRMDIVHLME [I33W], for which the abundance fitness is -0.073 ± 0.098.

Consider ERLAYIADHLGFSWTELARELDFTEEQIHQIRVENPNSLQDQSHALLKYWLERDGKHATDTNLVECLTKINRMDIVHLME [I33V], for which the abundance fitness is -0.04 ± 0.071.

With ERLAYIADHLGFSWTELARELDFTEEQIHQIRTENPNSLQDQSHALLKYWLERDGKHATDTNLVECLTKINRMDIVHLME [I33T], the abundance fitness is -0.022 ± 0.096.

For the variant ERLAYIADHLGFSWTELARELDFTEEQIHQIRFENPNSLQDQSHALLKYWLERDGKHATDTNLVECLTKINRMDIVHLME [I33F], the abundance fitness is -0.019 ± 0.18.

Turning to ERLAYIADHLGFSWTELARELDFTEEQIHQIRPENPNSLQDQSHALLKYWLERDGKHATDTNLVECLTKINRMDIVHLME [I33P], the abundance fitness is -0.912 ± 0.12.

As for ERLAYIADHLGFSWTELARELDFTEEQIHQIRLENPNSLQDQSHALLKYWLERDGKHATDTNLVECLTKINRMDIVHLME [I33L], the abundance fitness is -0.087 ± 0.052.

As for ERLAYIADHLGFSWTELARELDFTEEQIHQIRQENPNSLQDQSHALLKYWLERDGKHATDTNLVECLTKINRMDIVHLME [I33Q], the abundance fitness was 0.003 ± 0.13.

ERLAYIADHLGFSWTELARELDFTEEQIHQIRNENPNSLQDQSHALLKYWLERDGKHATDTNLVECLTKINRMDIVHLME [I33N]: the abundance fitness was -0.223 ± 0.12.

As for ERLAYIADHLGFSWTELARELDFTEEQIHQIRMENPNSLQDQSHALLKYWLERDGKHATDTNLVECLTKINRMDIVHLME [I33M], the abundance fitness came out at 0.011 ± 0.11.

With ERLAYIADHLGFSWTELARELDFTEEQIHQIRHENPNSLQDQSHALLKYWLERDGKHATDTNLVECLTKINRMDIVHLME [I33H], the abundance fitness was -0.096 ± 0.17.

For the variant ERLAYIADHLGFSWTELARELDFTEEQIHQIRKENPNSLQDQSHALLKYWLERDGKHATDTNLVECLTKINRMDIVHLME [I33K], the abundance fitness was found to be 0.058 ± 0.11.

ERLAYIADHLGFSWTELARELDFTEEQIHQIRYENPNSLQDQSHALLKYWLERDGKHATDTNLVECLTKINRMDIVHLME [I33Y]: the abundance fitness is -0.027 ± 0.15.

With ERLAYIADHLGFSWTELARELDFTEEQIHQIRRENPNSLQDQSHALLKYWLERDGKHATDTNLVECLTKINRMDIVHLME [I33R], the abundance fitness stood at 0.011 ± 0.055.

With ERLAYIADHLGFSWTELARELDFTEEQIHQIRGENPNSLQDQSHALLKYWLERDGKHATDTNLVECLTKINRMDIVHLME [I33G], the abundance fitness is -0.047 ± 0.066.

For the origin of these results see the Human Domainome abundance scans (Beltran et al. 2025).
